Test results from article PMC8377056 (2021).

Biological target: Fc(A680)-VH4127 conjugate (human, UniProt P01857 = IgG part, Alexa Fluor 680 (degree of labelling 1.7); H-PEG6-VH4127-NH2 joined enzymatically by microbial transglutaminase to the C-terminus of the Myc-tagged Fc | non-natural amino acid residues (not given); …)
Test: SPR

koff: 0.000236 s⁻¹
B1: His-tagged recombinant mouse LDLR (receptor)
chain: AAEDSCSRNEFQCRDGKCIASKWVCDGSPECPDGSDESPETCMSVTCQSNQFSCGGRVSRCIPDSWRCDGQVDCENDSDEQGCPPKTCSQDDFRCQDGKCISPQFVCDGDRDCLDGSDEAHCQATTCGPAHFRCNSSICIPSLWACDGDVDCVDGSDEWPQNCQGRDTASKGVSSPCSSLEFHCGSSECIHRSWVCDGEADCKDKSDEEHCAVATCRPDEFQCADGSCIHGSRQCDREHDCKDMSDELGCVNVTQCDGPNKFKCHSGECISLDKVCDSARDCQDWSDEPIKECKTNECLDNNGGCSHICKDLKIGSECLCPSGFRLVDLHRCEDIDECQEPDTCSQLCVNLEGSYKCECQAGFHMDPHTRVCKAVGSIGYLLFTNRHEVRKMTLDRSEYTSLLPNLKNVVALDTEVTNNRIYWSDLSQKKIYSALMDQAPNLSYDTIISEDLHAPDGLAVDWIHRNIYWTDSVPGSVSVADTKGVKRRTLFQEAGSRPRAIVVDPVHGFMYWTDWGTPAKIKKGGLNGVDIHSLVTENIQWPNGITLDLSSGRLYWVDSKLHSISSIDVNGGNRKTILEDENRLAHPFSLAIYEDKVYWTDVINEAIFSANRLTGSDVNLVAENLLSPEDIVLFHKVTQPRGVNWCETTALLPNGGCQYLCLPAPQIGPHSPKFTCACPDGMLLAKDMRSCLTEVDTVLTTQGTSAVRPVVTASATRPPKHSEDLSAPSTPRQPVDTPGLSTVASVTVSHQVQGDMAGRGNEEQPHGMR
